Data reported in article PMC12516561 (2025).

B1: iRhom2 wild type (HA-tagged) [human] / beta-COP, endogenous [human (endogenous in HEK293T)] (parent)
chain 1: MASADKNGGSVSSVSSSRLQSRKPPNLSITIPPPEKETQAPGEQDSMLPEGFQNRRLKKSQPRTWAAHTTACPPSFLPKRKNPAYLKSVSLQEPRSRWQESSEKRPGFRRQASLSQSIRKGAAQWFGVSGDWEGQRQQWQRRSLHHCSMRYGRLKASCQRDLELPSQEAPSFQGTESPKPCKMPKIVDPLARGRAFRHPEEMDRPHAPHPPLTPGVLSLTSFTSVRSGYSHLPRRKRMSVAHMSLQAAAALLKGRSVLDATGQRCRVVKRSFAFPSFLEEDVVDGADTFDSSFFSKEEMSSMPDDVFESPPLSASYFRGIPHSASPVSPDGVQIPLKEYGRAPVPGPRRGKRIASKVKHFAFDRKKRHYGLGVVGNWLNRSYRRSISSTVQRQLESFDSHRPYFTYWLTFVHVIITLLVICTYGIAPVGFAQHVTTQLVLRNKGVYESVKYIQQENFWVGPSSIDLIHLGAKFSPCIRKDGQIEQLVLRERDLERDSGCCVQNDHSGCIQTQRKDCSETLATFVKWQDDTGPPMDKSDLGQKRTSGAVCHQDPRTCEEPASSGAHIWPDDITKWPICTEQARSNHTGFLHMDCEIKGRPCCIGTKGSCEITTREYCEFMHGYFHEEATLCSQVHCLDKVCGLLPFLNPEVPDQFYRLWLSLFLHAGVVHCLVSVVFQMTILRDLEKLAGWHRIAIIFILSGITGNLASAIFLPYRAEVGPAGSQFGLLACLFVELFQSWPLLERPWKAFLNLSAIVLFLFICGLLPWIDNIAHIFGFLSGLLLAFAFLPYITFGTSDKYRKRALILVSLLAFAGLFAALVLWLYIYPINWPWIEHLTCFPFTSRFCEKYELDQVLH
chain 2: MTAAENVCYTLINVPMDSEPPSEISLKNDLEKGDVKSKTEALKKVIIMILNGEKLPGLLMTIIRFVLPLQDHTIKKLLLVFWEIVPKTTPDGRLLHEMILVCDAYRKDLQHPNEFIRGSTLRFLCKLKEAELLEPLMPAIRACLEHRHSYVRRNAVLAIYTIYRNFEHLIPDAPELIHDFLVNEKDASCKRNAFMMLIHADQDRALDYLSTCIDQVQTFGDILQLVIVELIYKVCHANPSERARFIRCIYNLLQSSSPAVKYEAAGTLVTLSSAPTAIKAAAQCYIDLIIKESDNNVKLIVLDRLIELKEHPAHERVLQDLVMDILRVLSTPDLEVRKKTLQLALDLVSSRNVEELVIVLKKEVIKTNNVSEHEDTDKYRQLLVRTLHSCSVRFPDMAANVIPVLMEFLSDNNEAAAADVLEFVREAIQRFDNLRMLIVEKMLEVFHAIKSVKIYRGALWILGEYCSTKEDIQSVMTEIRRSLGEIPIVESEIKKEAGELKPEEEITVGPVQKLVTEMGTYATQSALSSSRPTKKEEDRPPLRGFLLDGDFFVAASLATTLTKIALRYVALVQEKKKQNSFVAEAMLLMATILHLGKSSLPKKPITDDDVDRISLCLKVLSECSPLMNDIFNKECRQSLSHMLSAKLEEEKLSQKKESEKRNVTVQPDDPISFMQLTAKNEMNCKEDQFQLSLLAAMGNTQRKEAADPLASKLNKVTQLTGFSDPVYAEAYVHVNQYDIVLDVLVVNQTSDTLQNCTLELATLGDLKLVEKPSPLTLAPHDFANIKANVKVASTENGIIFGNIVYDVSGAASDRNCVVLSDIHIDIMDYIQPATCTDAEFRQMWAEFEWENKVTVNTNMVDLNDYLQHILKSTNMKCLTPEKALSGYCGFMAANLYARSIFGEDALANVSIEKPIHQGPDAAVTGHIRIRAKSQGMALSLGDKINLSQKKTSI
B2: iRhom2 wild type (HA-tagged) [human] / 14-3-3 epsilon, endogenous [human (endogenous in HEK293T)] (parent)
chain 1: B1 chain 1
chain 2: MDDREDLVYQAKLAEQAERYDEMVESMKKVAGMDVELTVEERNLLSVAYKNVIGARRASWRIISSIEQKEENKGGEDKLKMIREYRQMVETELKLICCDILDVLDKHLIPAANTGESKVFYYKMKGDYHRYLAEFATGNDRKEAAENSLVAYKAASDIAMTELPPTHPIRLGLALNFSVFYYEILNSPDRACRLAKAAFDDAIAELDTLSEESYKDSTLIMQLLRDNLTLWTSDMQGDGEEQNKEALQDVEDENQ

Variants of: B1
Assay: co-immunoprecipitation (HA-IP) with western blot quantification
Conditions: iRhom1/2 DKO HEK293T cells, three independent experiments, read off a plot

Row | ratio to parent | Variant
1 | 0.98 | chain 1 S239A
2 | 1.15 | chain 1 P233A R234A R235A K236A R237A M238A
3 | 1.05 | chain 1 P233A R234A R235A K236A R237A M238A S239A

Variants of: B2
Assay: as above
Conditions: with 14-3-3 epsilon, iRhom1/2 DKO HEK293T cells, three independent experiments, read off a plot

Row | ratio to parent | Variant
4 | 1.3 | chain 1 P233A R234A R235A K236A R237A M238A
5 | 2.1 | chain 1 P233A R234A R235A K236A R237A M238A S239A
6 | 0.92 | chain 1 S239A
